First the molecules themselves.
B1: GFP-Atg11 (wild type) [S. cerevisiae] / PA-Atg19 [S. cerevisiae] (parent complex)
chain 1: MADADEYSTAPTQQEITPLQTTATIINAISGECITTNVDFFVSLDKFKQFIARKWKIPPDQLLILLPYGNKLKPSMFKELLINRSFTLNDFYVYDRRLFSLVSKPTPTNLLTSKDSNPMNSPNSNDLTETLEYLIKNSHISQYQGSDTIMIKPMPSPLEDADVDLSRLNYHSVTSLLTTNLGWLSALEIDVHYFKSLIPDIIAHIKRIFDGLTVCSQYLKLYCFDVESLYNSNVQFLNQLVDNGMTSKWEKCFNDTLSKLTALEGDSLQKFINIESLLENEKSVKILNHSINGKLNKIKREIDENASFRDIITVNIDRLRQMFTPNESKFELEDQMAESFEVLVSEMRTRSRNVLDKEEEEFNSQEFLKSMNVMLEKDKKESVKTLFTISQALYSQIGELIDLKKSLQKHAVAILGNIAFTQMEILGIKRLLLNECNKDLELYKKYEVEFAQVEDLPLIYGLYLIEKYRRLSWFQQILSFISNFNQDLELFKQNELRTRNKWVKNFGSIATVFCEDLLSSSDFKRLNEYHSHTSPPNEDEEDENENSIANYRQDLVKVSQAIDNYMTQIKETDVSEPIIDLLSKTLFETKRFHIIYSNFKNNNNNSSNGNSISPEGSIALKSDDVVKGYKTRIKKLESLLHEFQYSDIGHWPQGVLNTHLKPFRGSATSINKKKFLGASVLLEPANISEVNIDSVSQANNHQIQELESNVDDLLHQLQLLKEENNRKSMQISEMGKKISDLEVEKTAYRETLTNLNQELARLTNEEQSHRTEIFTLNASFKKQLNDIISQDNEKIEKLTGDYDDVSKSRERLQMDLDESNKKHEQEVNLLKADIERLGKQIVTSEKSYAETNSSSMEKGEKFETIPLAEDPGRENQISAYTQTLQDRIFDIISTNIFILENIGLLLTFDNNNNIQIRRVKGLKKGTAQSNILDESTQMLDAHDNSLIKSPVFQKLKDEYELIKSVANGSEKDTQQSIFLGNITQLYDNKLYEVAVIRRFKDIETLAKKLTKENKIKRTLLERFQREKVTLRNFQIGDLALFLPTRENVNSVGSMSSSTSSLSSSFSSVDLSTPPPLDAMSIQSSPSVIHSNVINQASISGRDKNKLMRPWAAFTAFEESTRYFLKDEKGLTKGKEWFVGRIVTLEHFVADSPSNNPFRLPKGSVWFQVTAVVVSYQGV
chain 2: MNNSKTNQQMNTSMGYPLTVYDECNKFQLIVPTLDANIMLWCIGQLSLLNDSNGCKHLFWQPNDKSNVRILLNNYDYGHLFKYLQCQRKCSVYIGEGTLKKYNLTISTSFDNFLDLTPSEEKESLCREDAHEDPVSPKAGSEEEISPNSTSNVVVSRECLDNFMKQLLKLEESLNKLELEQKVTNKEPNHRISGTIDIPEDRSELVNFFTELKTVKQLEDVFQRYHDYERLSQECDSKTEIASDHSKKETKIEVEPPNERSLQITMNQRDNSLYFQLFNNTNSVLAGNCKLKFTDAGDKPTTQIIDMGPHEIGIKEYKEYRYFPYALDLEAGSTIEIENQYGEVIFLGKYGSSPMINLRPPSRLSAESLQASQEPFYSFQIDTLPELDDSSIISTSISLSYDGDDNEKALTWEEL
B2: GFP-Atg11 (wild type) [S. cerevisiae] / Atg9-PA [S. cerevisiae] (parent complex)
chain 1: B1 chain 1
chain 2: MERDEYQLPNSHGKNTFLSRIFGLQSDEVNPSLNSQEMSNFPLPDIERGSSLLHSTNDSREDVDENDLRVPESDQGTSTEEEDEVDEEQVQAYAPQISDGLDGDHQLNSVTSKENVLETEKSNLERLVEGSTDDSVPKVGQLSSEEEEDNEFINNDGFDDDTPLFQKSKIHEFSSKKSNTIEDGKRPLFFRHILQNNRPQRDTQKLFTSSNAIHHDKDKSANNGPRNINGNQKHGTKYFGSATQPRFTGSPLNNTNRFTKLFPLRKPNLLSNISVLNNTPEDRINTLSVKERALWKWANVENLDIFLQDVYNYYLGNGFYCIILEKILNICTLLFVVFVSTYMGHCVDYSKLPTSHRVSDIIIDKCYSNSITGFTKFFLWMFYFFVILKIVQLYFDVQKLSELQNFYKYLLNISDDELQTLPWQNVIQQLMYLKDQNAMTANVVEVKAKNRIDAHDVANRIMRRENYLIALYNSDILNLSLPIPLFRTNVLTKTLEWNINLCVMGFVFNESGFIKQSILKPSQREFTREELQKRFMLAGFLNIILAPFLVTYFVLLYFFRYFNEYKTSPGSIGARQYTPIAEWKFREYNELYHIFKKRISLSTTLANKYVDQFPKEKTNLFLKFVSFICGSFVAILAFLTVFDPENFLNFEITSDRSVIFYITILGAIWSVSRNTITQEYHVFDPEETLKELYEYTHYLPKEWEGRYHKEEIKLEFCKLYNLRIVILLRELTSLMITPFVLWFSLPSSAGRIVDFFRENSEYVDGLGYVCKYAMFNMKNIDGEDTHSMDEDSLTKKIAVNGSHTLNSKRRSKFTAEDHSDKDLANNKMLQSYVYFMDDYSNSENLTGKYQLPAKKGYPNNEGDSFLNNKYSWRKQFQPGQKPELFRIGKHALGPGHNISPAIYSTRNPGKNWDNNNNGDDIKNGTNNATAKNDDNNGNNDHEYVLTESFLDSGAFPNHDVIDHNKMLNSNYNGNGILNKGGVLGLVKEYYKKSDVGR
B3: GFP-Atg11 (wild type) [S. cerevisiae] / Atg1-PA [S. cerevisiae] (parent complex)
chain 1: B1 chain 1
chain 2: MGDIKNKDHTTSVNHNLMASAGNYTAEKEIGKGSFATVYRGHLTSDKSQHVAIKEVSRAKLKNKKLLENLEIEIAILKKIKHPHIVGLIDCERTSTDFYLIMEYCALGDLTFLLKRRKELMENHPLLRTVFEKYPPPSENHNGLHRAFVLSYLQQLASALKFLRSKNLVHRDIKPQNLLLSTPLIGYHDSKSFHELGFVGIYNLPILKIADFGFARFLPNTSLAETLCGSPLYMAPEILNYQKYNAKADLWSVGTVVFEMCCGTPPFRASNHLELFKKIKRANDVITFPSYCNIEPELKELICSLLTFDPAQRIGFEEFFANKVVNEDLSSYELEDDLPELESKSKGIVESNMFVSEYLSKQPKSPNSNLAGHQSMADNPAELSDALKNSNILTAPAVKTDHTQAVDKKASNNKYHNSLVSDRSFEREYVVVEKKSVEVNSLADEVAQAGFNPNPIKHPTSTQNQNVLLNEQFSPNNQQYFQNQGENPRLLRATSSSSGGSDGSRRPSLVDRRLSISSLNPSNALSRALGIASTRLFGGANQQQQQQQITSSPPYSQTLLNSQLFHELTENIILRIDHLQHPETLKLDNTNIVSILESLAAKAFVVYSYAEVKFSQIVPLSTTLKGMANFENRRSMDSNAIAEEQDSDDAEEEDETLKKYKEDCLSTKTFGKGRTLSATSQLSATFNKLPRSEMILLCNEAIVLYMKALSILSKSMQVTSNWWYESQEKSCSLRVNVLVQWLREKFNECLEKADFLRLKINDLRFKHASEVAENQTLEEKGSSEEPVYLEKLLYDRALEISKMAAHMELKGENLYNCELAYATSLWMLETSLDDDDFTNAYGDYPFKTNIHLKSNDVEDKEKYHSVLDENDRIIIRKYIDSIANRLKILRQKMNHQN

This is an account of results in publication PMC8805157 (2021).

One experiment covers variants of B1. In words: CoIP (quantified western blot); proteins overexpressed with a CUP1 promoter in an atg11∆ strain; five independent replicates; read off a plot. (A western blot detects proteins with antibodies after separation by electrophoresis.)
For chain 1 Y565E, the ratio to parent is roughly 0.88.

The variants in a further experiment derive from B2. Nature of the experiment: CoIP (quantified western blot); proteins overexpressed with a CUP1 promoter in an atg11∆ strain; ≥ 3 independent replicates; read off a plot.
Take chain 1 Y565E: the ratio to parent is roughly -0.05.

A further experiment covers variants of B3. Nature of the experiment: CoIP (quantified western blot); endogenously driven Atg1-PA; overexpressed GFP-Atg11; four independent replicates; read off a plot.
For the variant chain 1 Y565E, the ratio to parent is roughly 0.13.
